Source: paper PMC3872205 (Journal of molecular biology, 2013)
Values belong to the molecule of their own block, whether it stands above or below them.

Tests used:
Test in all cases: ITC
[1] = target: Rb^380-816∆PL/S780A with S807 and S811 substituted for alanine, phosphorylated (UniProt P06400)
[2] = target: Rb^380-794∆PL/S780A, phosphorylated (UniProt P06400)
[3] = target: Rb^380-800∆PL/S780A, unphosphorylated (UniProt P06400)
[4] = target: Rb^380-816∆PL/S780A, phosphorylated (UniProt P06400)
[5] = target: Rb^380-816∆PL/S780A with S788 and S795 substituted to alanine, unphosphorylated (UniProt P06400)
[6] = target: Rb^380-800∆PL/S780A, phosphorylated (UniProt P06400)
[7] = target: Rb^380-794∆PL/S780A, unphosphorylated (UniProt P06400)
[8] = target: Rb^380-816∆PL/S780A, unphosphorylated (UniProt P06400)
[9] = target: Rb^380-816∆PL/S780A with S788 and S795 substituted to alanine, phosphorylated (UniProt P06400)
[10] = target: Rb^53-800∆NL/∆PL/S780A, phosphorylated (UniProt P06400)
[11] = target: Rb construct phosphorylated at Rb^IDL (T356/T373) (construct of Table 2)
[12] = target: Rb construct phosphorylated at Rb^PL (S608/S612) (construct of Table 2)
[13] = target: Rb construct phosphorylated at RbC^N (S788/S795) (construct of Table 2)
[14] = target: Rb^53-800∆NL/∆PL/S780A, phosphorylated (UniProt P06400 53-800, S780A, phosphorylated with Cdk; Rb^IDL (T356/T373) and RbC^N (S788/S795) sites)
[15] = target: Rb^53-800∆NL/∆PL/S780A, unphosphorylated (UniProt P06400 53-800, S780A)
[16] = target: T1, Rb^380-816/780A, unphosphorylated (UniProt P06400 380-816, 780A)
T1 sequence (looked up): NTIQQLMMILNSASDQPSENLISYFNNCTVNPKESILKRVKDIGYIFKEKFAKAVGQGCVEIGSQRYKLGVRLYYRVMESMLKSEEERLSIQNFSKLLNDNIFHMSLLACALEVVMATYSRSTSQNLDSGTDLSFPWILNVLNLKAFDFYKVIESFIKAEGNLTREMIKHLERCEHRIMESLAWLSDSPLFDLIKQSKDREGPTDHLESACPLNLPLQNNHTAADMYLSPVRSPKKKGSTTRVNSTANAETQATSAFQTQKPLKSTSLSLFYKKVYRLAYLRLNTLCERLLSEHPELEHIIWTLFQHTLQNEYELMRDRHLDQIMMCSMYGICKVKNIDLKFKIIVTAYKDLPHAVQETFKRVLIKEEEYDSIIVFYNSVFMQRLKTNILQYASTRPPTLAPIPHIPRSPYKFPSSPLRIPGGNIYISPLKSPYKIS

Kd [1]: 510 nM
Kd [2]: 270 nM
Kd [3]: 50 nM
Kd [4]: 470 nM
Kd [5]: 90 nM
Kd [6]: 510 nM
Kd [7]: 120 nM
Kd [8]: 70 nM
Kd [9]: 130 nM
Molecule: E2F1 transactivation domain (E2F1^TD, residues 372-437) (from UniProt Q01094 372-437) (domain or fragment)

fold reduction in binding affinity against the unphosphorylated construct [10]: 22 fold
fold inhibition of binding against the unphosphorylated construct [11]: 2 fold
Molecule: E2F2 transactivation domain (E2F2^TD) (domain or fragment)

fold rise of Kd against the unphosphorylated construct [12]: 9 fold
fold rise of Kd against the unphosphorylated construct [13]: 10 fold
fold inhibition of binding against the unphosphorylated construct [11]: 25 fold
Molecule: E2F3 transactivation domain (E2F3^TD) (domain or fragment)

Kd [14]: 30000 nM
Kd [15]: 130 nM
Kd [16]: 70 nM
B1: E2F1 transactivation domain (E2F1^TD, residues 372-437) (domain or fragment, UniProt Q01094 372-437, looked up)
chain: DRLSPLVAADSLLEHVREDFSGLLPEEFISLSPPHEALDYHFGLEEGEGIRDLFDCDFGDLTPLDF
